Laboratory results reported in patent US20060003939.

Assays:
[1] = target: 35S-methionine labeled wild type DIAP1, in vitro translated from diap1-pET14b (UniProt Q24306)
[2] = target: His-DIAP1 21-4S mutant (RING domain mutant), in vitro translated from diap1 21-4S pET14b (UniProt Q24306)
Sequence of His-DIAP1 21-4S mutant (RING domain mutant), in vitro translated from diap1 21-4S pET14b (Q24306 other isoform, or with tags, fused parts or gaps mutant): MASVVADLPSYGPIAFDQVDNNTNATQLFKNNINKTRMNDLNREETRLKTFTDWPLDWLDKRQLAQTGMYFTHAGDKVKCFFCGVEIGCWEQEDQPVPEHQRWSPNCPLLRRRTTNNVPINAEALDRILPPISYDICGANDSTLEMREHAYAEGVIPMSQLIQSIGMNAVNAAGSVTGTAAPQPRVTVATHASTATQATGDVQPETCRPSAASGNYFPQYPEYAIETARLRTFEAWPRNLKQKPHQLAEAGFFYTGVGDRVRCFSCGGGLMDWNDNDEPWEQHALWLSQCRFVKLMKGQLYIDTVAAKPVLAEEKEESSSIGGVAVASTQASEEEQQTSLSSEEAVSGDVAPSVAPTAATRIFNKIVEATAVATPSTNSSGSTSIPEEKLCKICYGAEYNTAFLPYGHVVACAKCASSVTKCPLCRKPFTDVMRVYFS

Sequence of 35S-methionine labeled wild type DIAP1, in vitro translated from diap1-pET14b (Q24306 whole entry, the tested form may be a part): as the sequence (Q24306 other isoform, or with tags, fused parts or gaps mutant) above, with Y406C counted along it

His-UBCD1 was tested, and the “in vitro ubiquitination reaction” value [1] was “Wild-type DIAP1 (lane 4) showed marked ubiquitination” and the “in vitro ubiquitination reaction” value [2] was “whereas the His-DIAP1^21-4S mutant (RING domain mutant) did not (lane 7), in the presence of ubcD1”.
